What was measured:
[1] = molecular target: Clostridium difficile toxin A (TcdA) (Clostridium difficile, UniProt P16154 1-2710); test: cell-based or functional assay
[2] = molecular target: Clostridium difficile toxin B (TcdB) (Clostridium difficile, UniProt P18177 2-2366); test: cell-based or functional assay
Chain of Clostridium difficile toxin B (TcdB) (P18177 2-2366 limits assumed): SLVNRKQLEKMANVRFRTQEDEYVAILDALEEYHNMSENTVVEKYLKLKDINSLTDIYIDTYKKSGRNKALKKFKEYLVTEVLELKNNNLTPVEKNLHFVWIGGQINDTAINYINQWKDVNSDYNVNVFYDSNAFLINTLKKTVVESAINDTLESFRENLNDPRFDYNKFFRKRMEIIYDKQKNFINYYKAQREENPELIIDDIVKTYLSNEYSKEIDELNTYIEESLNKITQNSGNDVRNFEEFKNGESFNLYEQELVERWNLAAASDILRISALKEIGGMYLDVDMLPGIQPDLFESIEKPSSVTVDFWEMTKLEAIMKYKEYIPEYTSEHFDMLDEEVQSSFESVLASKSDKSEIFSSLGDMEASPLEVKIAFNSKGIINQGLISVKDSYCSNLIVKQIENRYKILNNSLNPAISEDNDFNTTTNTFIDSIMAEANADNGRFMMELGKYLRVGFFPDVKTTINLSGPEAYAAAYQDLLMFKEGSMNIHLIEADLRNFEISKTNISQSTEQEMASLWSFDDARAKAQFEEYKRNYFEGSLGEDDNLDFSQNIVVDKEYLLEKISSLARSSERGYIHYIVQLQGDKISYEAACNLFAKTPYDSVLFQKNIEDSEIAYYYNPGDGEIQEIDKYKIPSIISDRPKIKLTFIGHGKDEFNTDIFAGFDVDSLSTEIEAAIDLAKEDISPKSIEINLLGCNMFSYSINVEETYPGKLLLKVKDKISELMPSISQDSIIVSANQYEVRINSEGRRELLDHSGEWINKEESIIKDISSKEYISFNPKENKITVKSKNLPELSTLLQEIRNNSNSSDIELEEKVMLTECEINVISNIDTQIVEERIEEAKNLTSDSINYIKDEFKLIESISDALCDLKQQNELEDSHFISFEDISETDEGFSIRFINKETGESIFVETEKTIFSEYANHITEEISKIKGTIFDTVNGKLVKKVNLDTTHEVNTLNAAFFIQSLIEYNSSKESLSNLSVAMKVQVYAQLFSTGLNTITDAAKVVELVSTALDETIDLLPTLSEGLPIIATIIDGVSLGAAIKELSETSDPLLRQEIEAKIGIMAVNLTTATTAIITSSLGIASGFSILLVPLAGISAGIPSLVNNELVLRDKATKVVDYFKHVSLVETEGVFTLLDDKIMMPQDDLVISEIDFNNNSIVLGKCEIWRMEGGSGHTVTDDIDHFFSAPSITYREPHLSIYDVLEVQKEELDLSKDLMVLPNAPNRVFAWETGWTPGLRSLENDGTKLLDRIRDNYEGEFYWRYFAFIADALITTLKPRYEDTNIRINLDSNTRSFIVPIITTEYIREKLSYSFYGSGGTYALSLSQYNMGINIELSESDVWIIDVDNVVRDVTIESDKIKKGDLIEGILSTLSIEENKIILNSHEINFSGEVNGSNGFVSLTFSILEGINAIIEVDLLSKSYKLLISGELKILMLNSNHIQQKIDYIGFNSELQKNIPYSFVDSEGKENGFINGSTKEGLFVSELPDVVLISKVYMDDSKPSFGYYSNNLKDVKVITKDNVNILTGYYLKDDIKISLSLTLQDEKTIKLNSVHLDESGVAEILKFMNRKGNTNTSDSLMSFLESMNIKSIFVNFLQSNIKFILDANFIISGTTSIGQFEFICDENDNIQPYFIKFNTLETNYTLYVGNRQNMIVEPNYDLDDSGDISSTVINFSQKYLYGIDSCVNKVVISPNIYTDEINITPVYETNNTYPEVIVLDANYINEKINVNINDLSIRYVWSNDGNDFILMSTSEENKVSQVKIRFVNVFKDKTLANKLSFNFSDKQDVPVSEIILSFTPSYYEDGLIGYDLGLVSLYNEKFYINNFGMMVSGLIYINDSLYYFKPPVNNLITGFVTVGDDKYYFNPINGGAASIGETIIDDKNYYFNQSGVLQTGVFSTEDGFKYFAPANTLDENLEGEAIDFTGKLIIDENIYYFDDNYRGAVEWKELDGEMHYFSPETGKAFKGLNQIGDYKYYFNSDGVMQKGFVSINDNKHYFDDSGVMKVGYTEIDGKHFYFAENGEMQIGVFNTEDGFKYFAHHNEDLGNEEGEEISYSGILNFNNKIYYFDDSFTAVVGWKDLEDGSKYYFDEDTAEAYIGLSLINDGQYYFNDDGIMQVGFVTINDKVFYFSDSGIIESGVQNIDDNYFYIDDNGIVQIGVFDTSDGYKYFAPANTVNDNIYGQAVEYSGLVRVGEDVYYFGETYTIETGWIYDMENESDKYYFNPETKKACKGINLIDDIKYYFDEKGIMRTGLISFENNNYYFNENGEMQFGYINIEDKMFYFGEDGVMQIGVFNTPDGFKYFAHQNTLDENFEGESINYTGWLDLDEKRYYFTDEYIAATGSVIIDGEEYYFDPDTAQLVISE

Chain of Clostridium difficile toxin A (TcdA) (P16154 whole entry): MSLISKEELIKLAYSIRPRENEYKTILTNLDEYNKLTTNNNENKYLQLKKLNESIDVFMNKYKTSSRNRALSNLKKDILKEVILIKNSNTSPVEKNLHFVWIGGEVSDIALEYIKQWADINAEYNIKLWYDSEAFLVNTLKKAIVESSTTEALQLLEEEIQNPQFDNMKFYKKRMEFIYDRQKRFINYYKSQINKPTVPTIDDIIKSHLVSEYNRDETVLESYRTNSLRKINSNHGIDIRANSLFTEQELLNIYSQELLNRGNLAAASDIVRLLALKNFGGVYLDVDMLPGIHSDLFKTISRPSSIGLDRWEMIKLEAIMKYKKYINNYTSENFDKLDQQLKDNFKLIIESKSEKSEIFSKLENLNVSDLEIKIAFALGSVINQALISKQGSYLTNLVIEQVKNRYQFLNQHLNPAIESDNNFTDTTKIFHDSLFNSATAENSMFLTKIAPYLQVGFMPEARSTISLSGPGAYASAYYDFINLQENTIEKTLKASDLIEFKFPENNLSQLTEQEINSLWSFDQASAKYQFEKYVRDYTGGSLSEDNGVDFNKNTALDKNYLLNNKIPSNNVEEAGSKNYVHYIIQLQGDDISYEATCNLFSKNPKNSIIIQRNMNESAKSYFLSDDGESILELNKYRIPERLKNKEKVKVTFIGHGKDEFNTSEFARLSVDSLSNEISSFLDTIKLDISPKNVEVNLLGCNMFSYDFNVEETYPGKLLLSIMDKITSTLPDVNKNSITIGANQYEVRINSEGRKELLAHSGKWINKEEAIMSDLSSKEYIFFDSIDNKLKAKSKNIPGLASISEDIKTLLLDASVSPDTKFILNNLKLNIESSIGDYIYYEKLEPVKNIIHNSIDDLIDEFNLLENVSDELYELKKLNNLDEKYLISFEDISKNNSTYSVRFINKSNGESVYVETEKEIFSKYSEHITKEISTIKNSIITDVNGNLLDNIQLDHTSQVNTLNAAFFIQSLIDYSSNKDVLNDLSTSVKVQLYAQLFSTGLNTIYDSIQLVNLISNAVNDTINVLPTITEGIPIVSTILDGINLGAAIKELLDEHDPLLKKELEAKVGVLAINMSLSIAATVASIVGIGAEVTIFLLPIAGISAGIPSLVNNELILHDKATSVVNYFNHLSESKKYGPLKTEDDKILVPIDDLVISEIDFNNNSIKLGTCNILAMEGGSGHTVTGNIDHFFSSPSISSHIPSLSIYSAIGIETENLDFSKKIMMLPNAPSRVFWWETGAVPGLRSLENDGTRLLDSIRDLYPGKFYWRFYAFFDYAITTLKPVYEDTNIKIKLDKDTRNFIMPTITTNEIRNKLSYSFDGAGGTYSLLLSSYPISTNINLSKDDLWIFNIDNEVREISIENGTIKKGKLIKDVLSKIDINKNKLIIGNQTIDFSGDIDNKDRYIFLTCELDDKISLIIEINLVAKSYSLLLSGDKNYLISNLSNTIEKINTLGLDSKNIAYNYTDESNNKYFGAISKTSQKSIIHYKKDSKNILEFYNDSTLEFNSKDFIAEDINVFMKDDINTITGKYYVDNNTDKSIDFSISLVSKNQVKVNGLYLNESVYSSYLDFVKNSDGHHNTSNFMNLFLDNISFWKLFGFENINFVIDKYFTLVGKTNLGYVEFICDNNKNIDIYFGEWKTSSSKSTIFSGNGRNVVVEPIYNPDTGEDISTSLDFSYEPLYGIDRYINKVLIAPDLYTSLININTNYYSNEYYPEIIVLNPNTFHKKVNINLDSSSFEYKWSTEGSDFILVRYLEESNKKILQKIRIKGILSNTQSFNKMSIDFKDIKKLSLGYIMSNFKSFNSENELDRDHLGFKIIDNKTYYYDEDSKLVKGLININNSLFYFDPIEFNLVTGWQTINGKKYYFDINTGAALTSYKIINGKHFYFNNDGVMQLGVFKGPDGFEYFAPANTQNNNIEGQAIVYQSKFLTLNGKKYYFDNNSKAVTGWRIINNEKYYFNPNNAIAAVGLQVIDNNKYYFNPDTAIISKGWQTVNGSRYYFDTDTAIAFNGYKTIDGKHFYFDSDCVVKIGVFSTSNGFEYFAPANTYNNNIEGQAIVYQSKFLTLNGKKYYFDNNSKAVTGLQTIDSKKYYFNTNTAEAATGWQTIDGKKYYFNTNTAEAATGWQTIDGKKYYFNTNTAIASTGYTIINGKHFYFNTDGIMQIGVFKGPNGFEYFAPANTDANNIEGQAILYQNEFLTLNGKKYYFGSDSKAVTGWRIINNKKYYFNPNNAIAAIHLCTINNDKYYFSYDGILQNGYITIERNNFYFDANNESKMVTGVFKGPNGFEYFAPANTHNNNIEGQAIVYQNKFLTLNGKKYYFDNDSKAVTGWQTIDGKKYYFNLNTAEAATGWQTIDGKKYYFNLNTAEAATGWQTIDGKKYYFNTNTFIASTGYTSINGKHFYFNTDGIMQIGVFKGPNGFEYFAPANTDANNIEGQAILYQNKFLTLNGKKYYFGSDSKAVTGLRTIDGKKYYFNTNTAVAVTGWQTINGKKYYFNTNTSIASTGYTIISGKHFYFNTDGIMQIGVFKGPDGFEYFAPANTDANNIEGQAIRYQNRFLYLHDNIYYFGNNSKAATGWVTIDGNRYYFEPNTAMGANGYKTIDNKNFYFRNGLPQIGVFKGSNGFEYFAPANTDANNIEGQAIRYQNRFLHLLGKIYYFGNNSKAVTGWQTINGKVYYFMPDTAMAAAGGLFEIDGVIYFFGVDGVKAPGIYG

B1: FZ003 binding agent (tetra-specific, octameric VHH-IgG1 with CDR-grafted humanized VHHs) (bispecific antibody)
light: EVQLLESGGGLVQPGGSLRLSCAASGFTFSDYVMTWVRQAPGKGPEWIATINTDGSTMRDDSTKGRFTISRDNSKNTLYLQMNSLRAEDTAVYYCARGRVISASAIRGAVRGQGTLVTVSSGGGGSGGGGSGGGGSEVQLLESGGGLVQPGGSLRLSCAASGSIAGFETVTWSRQAPGKSLQWVASMTKTNNEIYSDSVKGRFTISRDNSKNTVYLQMNSLRAEDTAVYYCKGPELRGQGTLVTVSSRTVAAPSVFIFPPSDEQLKSGTASVVCLLNNFYPREAKVQWKVDNALQSGNSQESVTEQDSKDSTYSLSSTLTLSKADYEKHKVYACEVTHQGLSSPVTKSFNRGEC
heavy: not shown
In the case of B1, the “survival in mouse systemic toxin challenge (toxins pre-incubated with antibody)” value [1] is reported as > 1000 fold more potent than the Merck antibody and the “survival in mouse systemic toxin challenge (toxins pre-incubated with antibody)” value [2] is reported as > 1000 fold more potent than the Merck antibody.
